Residue numbers refer to the chain shown, from its start. One block for each binder: values may come before it.
Legend:
[1] = molecular target: T1, recombinant TIP1 protein (tax interacting protein 1) (Homo sapiens (Human), UniProt O14907 2-124, limits assumed); assay: indirect ELISA, hybridoma supernatant dilutions on coated recombinant TIP1, anti-mouse HRP, TMB
T1 construct: Purified recombinant TIP1 used as coat or analyte in ELISA, Western blot and Biacore
T1 sequence: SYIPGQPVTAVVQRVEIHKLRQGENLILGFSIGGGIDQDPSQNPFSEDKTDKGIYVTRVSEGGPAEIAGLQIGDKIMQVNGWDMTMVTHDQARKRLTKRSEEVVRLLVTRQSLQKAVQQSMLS

[2] = molecular target: T2, TIP1 in or on human tumor cell lines (A549, H460, H23, U251) (human, UniProt O14907 2-124); assay: flow cytometry, hybridoma supernatant on A549, H460 and H23 cells, Alexa Fluor 488 anti-mouse antibody
T2 construct: Endogenous TIP1 of tumor cell lines, not transfected cells; also called cell surface TIP1
T2 sequence: T1 sequence

B1: 4B12 mouse monoclonal anti-TIP1 antibody (antibody, V domains shown)
VH: QFQLQQSGAELARPGASVKLSCKASGYTFTSYGISWVKQRTGQGLEWIGEIYFRSGNIYYNEKFKGKATLTADKSSSTAYMELRSLTSEDSAVYFCARSKTFYSNYGGVFDYWGQGTTLTVSS
VL: DVLVTQTPLSLPVSLGDQASISCRSSRSIVHNNGNTYLEWYLQKPGQSPKLLIYKVSNRFSGVPDRFSGSGSGTDFTLKISRVEAEDLGVYYCFQGSHVPPTFGGGTRLEIK
notes: also called 4612
binding result [1]: binds

B2: 2F10 mouse monoclonal anti-TIP1 antibody (antibody, V domains shown)
VH: QVQLQQSGAELARPGASVKLSCKASGYTFTSSGISWVIQKTGQGLEWIGEIYPRSGNTYYNEKFKAKAALTADKSSSTAHMELRSLTSEDSAVYFCARSKTYYSKYGGFFDYWGQGTPLTVSS
VL: B1 VL with V4M, R27Q, N32G, Y54H, R108K
notes: Mouse monoclonal from hybridoma, tested as supernatant or purified
binding result [2]: binds

Results, then the binder that gave them:

binding result [2]: binds
B3: 7H5 mouse monoclonal anti-TIP1 antibody (antibody, V domains shown)
VH: QAQLQQSGAELARPGASVRLSCKASGYILTSSGISWVKQRTGQGLEWIGEIYPRSGNTYYNEKFKGKATLTADKSSSIAYMDLRTLTSEDSAVYFCARSKTFYSKYGGVFDYWGQGTTLTVSS
VL: B1 VL with V4M, R27Q, S28N, E39D, T74A, R108K
notes: Mouse monoclonal from hybridoma

binding result [2]: binds
B4: 3D6 mouse monoclonal anti-TIP1 antibody (antibody, V domains shown)
VH: QVQLHQSGAELARPGAAVKLTCKASGYTLTNSGISWVKQRSGQGLEWIGEIYPGSGNIYYNEKFKVKATLTADKSSSTTYMELRSLTSEDSAVYFCARSRTYYSKYGGLFDYWGQGATLTVSS
VL: B1 VL with V4M, S14R, R27Q, I29L, V30L, N58S, E86K, V99I, R108K
notes: as for B3
